According to patent publication US10154957B2, “Microneedle device having a peptide therapeutic agent and an amino acid and methods of making and using the same” (3M INNOVATIVE PROPERTIES COMPANY, priority 2011, dated 2018):

What was measured:
Assay type in all cases: physicochemical
[1] = Stability of salmon calcitonin in coating on flood-coated microneedle arrays stored at 40° C./96% RH (HPLC); details: salmon calcitonin 5 mg/mL in PBS
Method: (§1) The protein or polypeptide content in the formulation coated on the microneedle arrays was determined using an Agilent 1100 HPLC system (Agilent Technologies, Wilmington, Del.) equipped with a binary pump, well-plated thermostated autosampler, thermostated column compartment, and a diode array UV detector. A Zorbax 300SB-C8 column (Agilent Technologies, Wilmington, Del.) having a 5 μm particle size and 2.1×150 mm inner diameter was used for the separations. The column was maintained at 50° C. The mobile phase consisted of two eluents. Eluent A was 0.1% TFA (trifluoroacetic acid) in water and eluent B was 0.1% TFA in acetonitrile (Spectrum Chemical, New Brunswick, N.J.). A linear gradient from 80/20 to 50/50 (A/B) was applied over 30 minutes. The flow rate was 0.4 mL/minute and the UV detection wavelength was set at 214 nm. The total run time was 34 minutes and the sample injection volume was 15 μL.
(§2) A sample formulation containing 5 mg/mL of salmon calcitonin and 12 mg/mL of L-histidine monohydrochloride (His-HCl) in PBS was prepared. The pH of the sample formulation was 5.5. A control formulation was also prepared containing 5 mg/mL of salmon calcitonin in PBS. […] The pH of the control formulation was 6.0-6.5. Microneedle arrays were coated with either the sample or the control formulation. The coating was applied by dropwise addition of 50 μL of the formulation to the portion of the array defined by the octagon shaped pattern of microneedles. The flood coated arrays (both sample and control formulation coated) were dried in an oven at 35° C. for about 15 hours.
(§3) After drying, the coated arrays were placed in a storage chamber that was maintained at 40° C. and 96% relative humidity (RH). The salmon calcitonin content of the coated arrays was determined following storage in the chamber for 1, 3, 7, and 14 days. At the designated time point, an array was taken from the chamber and washed with PBS (1 mL) to remove the coating from the array. An aliquot of the resulting wash solution was analyzed for salmon calcitonin content using the HPLC method described above. Reference standards were prepared by measuring the initial salmon calcitonin content of freshly coated arrays (both sample and control formulation coated). The arrays used as reference standards were stored in a refrigerator at about 4° C. and analyzed within one day of being prepared. The percentage of undegraded salmon calcitonin remaining in the coating at each time point was determined by measuring the peak area for salmon calcitonin in the selected coating and dividing it by the peak area measured for salmon calcitonin in the corresponding reference standard.
The same procedure as described in Example 3 was used with the exception that the sample formulation contained 12 mg/mL of L-arginine hydrochloride, instead of L-histidine monohydrochloride. The pH of the sample formulation was 6.0-6.5.

[2] = Stability of lysozyme in coating on flood-coated microneedle arrays stored at 40° C./96% RH (HPLC); details: lysozyme 10 mg/mL in PBS
Method: as §1
as §2, with “containing 10” for “containing 5”, “of lysozyme” for “of salmon calcitonin”, “was 5.5-6.0.” for “was 5.5.”, “was 6.5.” for “was 6.0-6.5.”
as §3, with “lysozyme” for “salmon calcitonin”, “(2” for “(1”, “lysozyme” for “initial salmon calcitonin”
The same procedure as described in Example 7 was used with the exception that the sample formulation contained 12 mg/mL of L-arginine hydrochloride, instead of L-histidine monohydrochloride. The pH of the sample formulation was 6.5.

[3] = Stability of PTH in coating on flood-coated microneedle arrays stored at 40° C./96% RH (HPLC); details: PTH 10 mg/mL in PBS
Method: as §1
Microneedle arrays were coated with either the sample or the control formulation. The coating was applied by dropwise addition of 50 μL of the formulation to the portion of the array defined by the octagon shaped pattern of microneedles. The flood coated arrays (both sample and control formulation coated) were dried in an oven at 35° C. for about 15 hours.
After drying, the coated arrays were placed in a storage chamber that was maintained at 40° C. and 96% relative humidity (RH). […] The arrays used as reference standards were stored in a refrigerator at about 4° C. and analyzed within one day of being prepared.

[4] = Amino Acid L-Arginine (Arg-HCl 12 mg/mL), Day 1 at 40° C./96% RH
[5] = Amino Acid L-Arginine (Arg-HCl 12 mg/mL), Day 3 at 40° C./96% RH
[6] = Amino Acid L-Arginine (Arg-HCl 12 mg/mL), Day 7 at 40° C./96% RH
[7] = Amino Acid L-Arginine (Arg-HCl 12 mg/mL), Day 14 at 40° C./96% RH
[8] = Amino Acid L-Arginine (Arg-HCl 12 mg/mL), Initial
[9] = Amino Acid L-Histidine (His-HCl 12 mg/mL), Day 1 at 40° C./96% RH
[10] = Amino Acid L-Histidine (His-HCl 12 mg/mL), Day 3 at 40° C./96% RH
[11] = Amino Acid L-Histidine (His-HCl 12 mg/mL), Day 7 at 40° C./96% RH
[12] = Amino Acid L-Histidine (His-HCl 12 mg/mL), Day 14 at 40° C./96% RH
[13] = Amino Acid L-Histidine (His-HCl 12 mg/mL), Initial
[14] = Amino Acid None (control), Day 1 at 40° C./96% RH
[15] = Amino Acid None (control), Day 3 at 40° C./96% RH
[16] = Amino Acid None (control), Day 7 at 40° C./96% RH
[17] = Amino Acid None (control), Day 14 at 40° C./96% RH
[18] = Amino Acid None (control), Initial

Salmon calcitonin
Percent of Initial Salmon Calcitonin Content in the Coating [1, 4]: 5.8%
Percent of Initial Salmon Calcitonin Content in the Coating [1, 5]: 0.3%
Percent of Initial Salmon Calcitonin Content in the Coating [1, 6]: 0%
Percent of Initial Salmon Calcitonin Content in the Coating [1, 7]: 0%
Percent of Initial Salmon Calcitonin Content in the Coating [1, 8]: 100%
Percent of Initial Salmon Calcitonin Content in the Coating [1, 9]: 30.3%
Percent of Initial Salmon Calcitonin Content in the Coating [1, 10]: 31.7%
Percent of Initial Salmon Calcitonin Content in the Coating [1, 11]: 7.5%
Percent of Initial Salmon Calcitonin Content in the Coating [1, 12]: 2.7%
Percent of Initial Salmon Calcitonin Content in the Coating [1, 13]: 100%
Percent of Initial Salmon Calcitonin Content in the Coating [1, 14]: 21.5%
Percent of Initial Salmon Calcitonin Content in the Coating [1, 15]: 0.9%
Percent of Initial Salmon Calcitonin Content in the Coating [1, 16]: 0.1%
Percent of Initial Salmon Calcitonin Content in the Coating [1, 17]: 0%
Percent of Initial Salmon Calcitonin Content in the Coating [1, 18]: 100%

lysozyme
Percent of Initial Lysozyme Content in the Coating [2, 4]: 52.6%
Percent of Initial Lysozyme Content in the Coating [2, 5]: 33.1%
Percent of Initial Lysozyme Content in the Coating [2, 6]: 22.4%
Percent of Initial Lysozyme Content in the Coating [2, 7]: 23.0%
Percent of Initial Lysozyme Content in the Coating [2, 8]: 100%
Percent of Initial Lysozyme Content in the Coating [2, 9]: 100.0%
Percent of Initial Lysozyme Content in the Coating [2, 10]: 80.6%
Percent of Initial Lysozyme Content in the Coating [2, 11]: 60.1%
Percent of Initial Lysozyme Content in the Coating [2, 12]: 53.3%
Percent of Initial Lysozyme Content in the Coating [2, 13]: 100%
Percent of Initial Lysozyme Content in the Coating [2, 14]: 26.9%
Percent of Initial Lysozyme Content in the Coating [2, 15]: 4.4%
Percent of Initial Lysozyme Content in the Coating [2, 16]: 1.9%
Percent of Initial Lysozyme Content in the Coating [2, 17]: 1.9%
Percent of Initial Lysozyme Content in the Coating [2, 18]: 100%

parathyroid hormone (1-34) (human) [PTH]
Percent of Initial PTH Content in the Coating [3, 4]: 3.5%
Percent of Initial PTH Content in the Coating [3, 5]: 0.8%
Percent of Initial PTH Content in the Coating [3, 6]: 0.4%
Percent of Initial PTH Content in the Coating [3, 7]: 0%
Percent of Initial PTH Content in the Coating [3, 8]: 100%
Percent of Initial PTH Content in the Coating [3, 9]: 85.2%
Percent of Initial PTH Content in the Coating [3, 10]: 60.3%
Percent of Initial PTH Content in the Coating [3, 11]: 23.1%
Percent of Initial PTH Content in the Coating [3, 13]: 100%
Percent of Initial PTH Content in the Coating [3, 14]: 1.3%
Percent of Initial PTH Content in the Coating [3, 15]: 0%
Percent of Initial PTH Content in the Coating [3, 16]: 0%
Percent of Initial PTH Content in the Coating [3, 17]: 0%
Percent of Initial PTH Content in the Coating [3, 18]: 100%
